Source: article doi:10.1101/2022.06.30.498311 (bioRxiv, 2022)

Target: the molecule itself
Test: crystal structure

B1: Sul1 (enzyme, UniProt P0C002 1-269, looked up)
chain: MVTVFGILNLTEDSFFDESRRLDPAGAVTAAIEMLRVGSDVVDVGPAASHPDARPVSPADEIRRIAPLLDALSDQMHRVSIDSFQPETQRYALKRGVGYLNDIQGFPDPALYPDIAEADCRLVVMHSAQRDGIATRTGHLRPEDALDEIVRFFEARVSALRRSGVAADRLILDPGMGFFLSPAPETSLHVLSNLQKLKSALGLPLLVSVSRKSFLGATVGLPVKDLGPASLAAELHAIGNGADYVRTHAPGDLRSAITFSETLAKFRSR
B1: binds.
